The source of these data is article PMC3295762, “Gene Expression of the Tumour Suppressor LKB1 Is Mediated by Sp1, NF-Y and FOXO Transcription Factors”.

For series [1], the target named is T1, GST-FOXO3 (UniProt O43524 1-673). Briefly: competition; unlabeled excess vs N1 probe; EMSA: 10% glycerol, 12 mM HEPES pH 7.9, 4 mM Tris-HCl pH 7.9, 60 mM KCl, 1 mM DTT, 0.6 mg/ml BSA, 0.5 ug poly(dI-dC), 20 ul, 30 min at 25 C; supershift 1 h at 4 C. The following applies: protein: commercial; tags: GST; blunt. For orientation: In EMSA bound probe runs differently from free probe, usually more slowly.
T1 sequence (O43524 whole entry): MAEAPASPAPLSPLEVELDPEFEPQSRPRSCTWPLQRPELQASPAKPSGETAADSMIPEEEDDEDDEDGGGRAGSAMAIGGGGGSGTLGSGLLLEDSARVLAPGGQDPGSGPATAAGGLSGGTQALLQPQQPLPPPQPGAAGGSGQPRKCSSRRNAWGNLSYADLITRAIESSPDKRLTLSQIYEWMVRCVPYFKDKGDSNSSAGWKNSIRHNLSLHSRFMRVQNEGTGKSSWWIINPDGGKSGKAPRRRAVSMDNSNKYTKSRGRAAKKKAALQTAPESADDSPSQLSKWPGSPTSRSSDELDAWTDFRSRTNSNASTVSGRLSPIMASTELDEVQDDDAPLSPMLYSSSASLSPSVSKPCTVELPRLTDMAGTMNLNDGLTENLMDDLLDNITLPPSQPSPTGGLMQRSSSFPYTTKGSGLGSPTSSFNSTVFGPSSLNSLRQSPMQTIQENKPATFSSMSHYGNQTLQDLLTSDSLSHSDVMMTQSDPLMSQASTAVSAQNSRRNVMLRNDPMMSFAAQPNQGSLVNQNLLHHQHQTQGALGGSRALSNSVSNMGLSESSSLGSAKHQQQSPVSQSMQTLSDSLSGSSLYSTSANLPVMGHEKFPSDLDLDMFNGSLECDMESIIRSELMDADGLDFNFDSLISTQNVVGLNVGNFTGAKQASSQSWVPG

In series [2] the target is T1, GST-FOXO3. Put plainly: EMSA; EMSA: 10% glycerol, 12 mM HEPES pH 7.9, 4 mM Tris-HCl pH 7.9, 60 mM KCl, 1 mM DTT, 0.6 mg/ml BSA, 0.5 ug poly(dI-dC), 20 ul, 30 min at 25 C; supershift 1 h at 4 C. Conditions: protein: commercial; tags: GST; label: 32P; blunt.

B1: LKB1 FOXO site oligo mutant (dsDNA)
DNA 1: GGGGAGGGAGGTAGCCAAGATGGCGGC
DNA 2: GCCGCCATCTTGGCTACCTCCCTCCCC
On to B1, for which the binding result with GST-FOXO3 [1] is “no binding”.

B2: LKB1 FOXO site oligo WT (dsDNA)
DNA 1: GGGGAGGGAGGTAAACAAGATGGCGGC
DNA 2: GCCGCCATCTTGTTTACCTCCCTCCCC
On to B2, for which the binding result with GST-FOXO3 [2] is on record as “binds”.
